Residue numbers refer to the chain shown, from its start. Names and notes keep the numbering of the source.
B1: C4598F8: SEQ ID NO: 60; H244W+T344A+I396K+I109V+V262A+V287I+K309N (protein)
chain: MADKNILYGPEPFYPLEDGTAGEQMFDALSRYAAIPGCIALTNAHTKENVLYEEFLKLSCRLAESFKKYGLKQNDTIAVCSENSLQFFLPVIASLYLGIIVAPVNDKYVERELIHSLGIVKPRIVFCSKNTFQKVLNVKSKLKSIETIIILDLNEDLGGYQCLNNFISQNSDSNLDVKKFKPYSFNRDDQVASIMFSSGTTGLPKGVMLTHKNIVARFSIAKDPTFGNAINPTSAILTVIPFHWGFGMMTTLGYFTCGFRVALMHTFEEKLFLQSLQDYKVESTLLIPTLMAFLAKSALVEKYDLSHLNEIASGGAPLSKEIGEMVKKRFKLNFVRQGYGLTEATSAVLITPKGDAKPGSTGKIVPLHAVKVVDPTTGKILGPNEPGELYFKGPMKMKGYYNNEEATKAIIDNDGWLRSGDIAYYDNDGHFYIVDRLKSLIKYKGYQVAPAEIEGILLQHPYIVDAGVTGIPDEAAGELPAAGVVVQTGKYLNEQIVQDYVASQVSTAKWLRGGVKFLDEIPKGSTGKIDRKVLRQMLEKHTNGHHHHHHHH
B2: C4589D5: SEQ ID NO: 59; H244W+T344A+I396K+A40A+K107Q+S193T+A316S (protein)
chain: B1 chain with K107Q, V109I, S193T, A262V, I287V, N309K, A316S
B3: C4584G5: SEQ ID NO: 57; H244W+T344A+I396K+K107Q+L305F (protein)
chain: B1 chain with K107Q, V109I, A262V, I287V, L305F, N309K
B4: C4610C10: SEQ ID NO: 65; H244W+T344A+1396K+S306P (protein)
chain: B1 chain with V109I, A262V, I287V, S306P, N309K
B5: C4580E9: SEQ ID NO: 54; H244W+T344A+I396K+N228D+V287I (protein)
chain: B1 chain with V109I, N228D, A262V, N309K
B6: C4580B10: SEQ ID NO: 53; H244W+T344A+I396K+K107Q+S193T+V262A (protein)
chain: B1 chain with K107Q, V109I, S193T, I287V, N309K
B7: C4581C3: SEQ ID NO: 55; H244W+T344A+I396K+I109M+S193L (protein)
chain: B1 chain with V109M, S193L, A262V, I287V, N309K
B8: C4608E7: SEQ ID NO: 63; H244W+T344A+I396K+K121N+N228D+V287I (protein)
chain: B1 chain with V109I, K121N, N228D, A262V, N309K
B9: C4601C8: SEQ ID NO: 61; H244W+T344A+I396K+S193P (protein)
chain: B1 chain with V109I, S193P, A262V, I287V, N309K
B10: C4584D9: SEQ ID NO: 56; H244W+T344A+I396K+I109M+S193L+L294H (protein)
chain: B1 chain with V109M, S193L, A262V, I287V, L294H, N309K
B11: C4610H6: SEQ ID NO: 66; H244W+T344A+I396K+K107Q+N228D (protein)
chain: B1 chain with K107Q, V109I, N228D, A262V, I287V, N309K
B12: C4629G5: SEQ ID NO: 67; H244W+T344A+I396K+I236V (protein)
chain: B1 chain with V109I, I236V, A262V, I287V, N309K
B13: C4609F7: SEQ ID NO: 64; H244W+T344A+I396K+Y108F+V262A+L305F (protein)
chain: B1 chain with Y108F, V109I, I287V, L305F, N309K
B14: C4604A11: SEQ ID NO: 62; H244W+T344A+I396K+I109M+A316S (protein)
chain: B1 chain with V109M, A262V, I287V, N309K, A316S
B15: C4588H8: SEQ ID NO: 58; H244W+T344A+I396K+K107Q+L305F (protein)
chain: B1 chain with K107Q, V109I, A262V, I287V, L305F, N309K

Experiments:
[1] = E. coli lysate screen of epPCR/DNA shuffling variants with CS0280; type: biochemical; conditions: Detection Reagent, 1 mM ATP, 500 μM substrate, 3 mins
Description: (§1) These experiments included lysing E. coli cells expressing each luciferase enzyme variant in Detection Reagent containing 1 mM ATP+500 μM substrate. The cell lysate was incubated at room temperature for 3 mins and luminescence was read. The raw luminescence reading was normalized to the on-plate luminescence of ATG-2889, which was used as a control in this screen.

[2] = E. coli lysate screen of epPCR/DNA shuffling variants with CS0333; type: biochemical; conditions: Detection Reagent, 1 mM ATP, 500 μM substrate, 3 mins
Description: as §1

Molecule	Normalized luminescence (Mutant RLU/ATG2889 RLU) with CS0280 [1]	Normalized luminescence (Mutant RLU/ATG2889 RLU) with CS0333 [2]
B1	5.88	4.91
B2	12.42	3.79
B3	4.39	3.42
B4	3.60	4.32
B5	4.00	6.51
B6	9.35	4.64
B7	3.88	1.04
B8	5.26	6.86
B9	4.53	3.32
B10	12.41	2.67
B11	3.67	4.15
B12	5.06	2.26
B13	3.90	6.04
B14	12.16	2.41
B15	6.56	3.90
